± gives the uncertainty stated by the source.
Experiment: self-splicing fitness, log relative to wild type (ln ratio); higher = more splicing; Tetrahymena group I intron in knt gene, E. coli kanamycin selection, DiMSum; sequences stand for … in CUCUCU…GGAGGGAAAAGUUAUCAGGCAUGCACCUGGUAGCUAGUCUUUAAACCAAUAGAUUGCAUCGGUUUAAAAGGCAAGACCGUCAAAUUGCGGGAAAGGGGUCAACAGCCGUUCAGUACCAAGUCUCAGGGGAAACUUUGAGAUGGCCUUGCAAAGGGUAUGGUAAUAAGCUGACGGACAUGGUCCUAACCACGCAGCCAAGUCCUAAGUCAACAGAUCUUCUGUUGAUAUGGAUGCAGUUCACAGACUAAAUGUCGGUCGGGGAAGAUGUAUUCUUCUCAUAAGAUAUAGUCGGACCUCUCCUUAAUGGGAGCUAGCGGAUGAAGUGAUGCAACACUGGAGCCGCUGGGAACUAAUUUGUAUGCGAAAGUAUAUUGAUUAGUUUUGGAGUACUCGUGGUCG
Method in brief: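 Pooled colonies went to amplicon sequencing on an Illumina HiSeq 2500 after six replicate transformations. The plates were LB agar with 100 μg/mL carbenicillin, 50 μM IPTG and 0.2% rhamnose, with or without 25 μg/mL kanamycin, incubated overnight at 37°C or 30°C. The E. coli BL21(DE3) library had all eight P1ex-region intron nucleotides randomised, the intron placed in the knt kanamycin-resistance gene on pET-22b(+). DiMSum fitness is the error-weighted combination of replicate fold changes, kanamycin against none, normalised to wild type.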

Sequence	self-splicing fitness (ln) (30 °C)	self-splicing fitness (ln) (37 °C)
CGAAAGCAAUAUUACGACCC	-1.42 ± 0.2	-0.478 ± 0.23
CGAAAGCAAUAUUACGACCG	-0.423 ± 0.12	-0.183 ± 0.15
CGAAAGCAAUAUUACGACGC	-1.81 ± 0.13	0.0494 ± 0.18
CGAAAGCAAUAUUACGAUGG	-0.519 ± 0.07	0.406 ± 0.1
CGAAAGCAAUAUUACGAUGU	-1.52 ± 0.074	-1.15 ± 0.13
CGAAAGCAAUAUUACGAUUG	-0.934 ± 0.074	-0.262 ± 0.1
CGAAAGCAAUAUUACGCCUA	-2.47 ± 0.24	-0.736 ± 0.14
CGAAAGCAAUAUUACGCGCA	-0.957 ± 0.12	-0.435 ± 0.13
CGAAAGCAAUAUUACGCGGA	-3.29 ± 0.26	-1.83 ± 0.17
CGAAAGCAAUAUUACGGAUC	-2.95 ± 0.16	-2.02 ± 0.15
CGAAAGCAAUAUUACGGCCA	-1.29 ± 0.14	-1.23 ± 0.099
CGAAAGCAAUAUUACGGCCU	-1.32 ± 0.068	-0.274 ± 0.082
CGAAAGCAAUAUUACGGGAC	–	-2.59 ± 0.32
CGAAAGCAAUAUUACGUAAU	-4.18 ± 0.18	-2.3 ± 0.12
CGAAAGCAAUAUUACGUCAA	-3.45 ± 0.34	-2.11 ± 0.25
CGACAGCAAUAUUACGAACG	-0.656 ± 0.11	-0.117 ± 0.16
CGACAGCAAUAUUACGAUUC	-3.6 ± 0.14	-0.756 ± 0.08
CGACAGCAAUAUUACGCCGC	–	-1.74 ± 0.36
CGACAGCAAUAUUACGCGCU	-3.43 ± 0.12	-1.91 ± 0.13
CGACAGCAAUAUUACGCUAG	-3.79 ± 0.25	-2.04 ± 0.16
CGACAGCAAUAUUACGCUCC	-1.44 ± 0.12	0.42 ± 0.13
CGACAGCAAUAUUACGCUCG	-3.34 ± 0.37	-2.18 ± 0.24
CGACAGCAAUAUUACGCUGG	-3.13 ± 0.18	-2.1 ± 0.17
CGACAGCAAUAUUACGGACU	-0.957 ± 0.072	-0.875 ± 0.11
CGACAGCAAUAUUACGGUAA	-1.81 ± 0.13	-1.44 ± 0.11
CGACAGCAAUAUUACGGUCU	-0.546 ± 0.039	0.187 ± 0.056

Sequence	self-splicing fitness (ln) (30 °C)	self-splicing fitness (ln) (37 °C)
CGACAGCAAUAUUACGGUUU	-1.64 ± 0.058	-0.714 ± 0.084
CGACAGCAAUAUUACGUAUG	-1.26 ± 0.076	-1.36 ± 0.1
CGACAGCAAUAUUACGUCGG	-1.83 ± 0.11	-1.44 ± 0.15
CGACAGCAAUAUUACGUGCU	-4.84 ± 0.36	-3.46 ± 0.23
CGACAGCAAUAUUACGUUAC	-3.39 ± 0.17	-2.29 ± 0.2
CGACAGCAAUAUUACGUUGC	-3.9 ± 0.37	-2.35 ± 0.36
CGACAGCAAUAUUACGUUUU	-3.62 ± 0.15	-1.54 ± 0.11
CGAGAGCAAUAUUACGAAGU	–	-3.51 ± 0.39
CGAGAGCAAUAUUACGAGAA	–	-1.69 ± 0.43
CGAGAGCAAUAUUACGAGAG	-3.58 ± 0.35	-0.712 ± 0.31
CGAGAGCAAUAUUACGAGCA	-1.62 ± 0.34	–
CGAGAGCAAUAUUACGAGGU	-3.16 ± 0.21	-2.02 ± 0.22
CGAGAGCAAUAUUACGAGUC	-3.99 ± 0.4	-3.75 ± 0.34
CGAGAGCAAUAUUACGCACC	-1.83 ± 0.28	-2 ± 0.34
CGAGAGCAAUAUUACGCGAA	-2.39 ± 0.27	-1.89 ± 0.37
CGAGAGCAAUAUUACGCUCU	-3.65 ± 0.27	-2.62 ± 0.3
CGAGAGCAAUAUUACGGACC	-3.73 ± 0.44	–
CGAGAGCAAUAUUACGGACU	-1.89 ± 0.29	-2.14 ± 0.38
CGAGAGCAAUAUUACGUAUC	-3.63 ± 0.25	-1.87 ± 0.38
CGAGAGCAAUAUUACGUCCA	–	-3.02 ± 0.43
CGAGAGCAAUAUUACGUUAC	-4.23 ± 0.28	-2.29 ± 0.24
CGAUAGCAAUAUUACGAAAC	-1.44 ± 0.32	–
CGAUAGCAAUAUUACGACAC	-3.23 ± 0.49	–
CGAUAGCAAUAUUACGACAU	-3.167 ± 0.021	-1.95 ± 0.035
CGAUAGCAAUAUUACGACCG	-1.44 ± 0.21	0.156 ± 0.24

Source: the supplement of paper PMC7877785
